Assay results: patent US9228015B2, “Nogo receptor antagonists and methods of increasing neurite outgrowth” (Biogen Idec MA Inc., priority 2006, dated 2016)
“Also recorded” adds a separate entry of the source.

Tests used:
NgR3 = molecular target: T1, NgR3 (Homo sapiens, UniProt Q86UN2); assay: Antibody binding specificity: NgR3
T1 sequence (Q86UN2 with tags, fused parts or gaps V54E/V59I/G67T/L68F/P71Q/Y90F/H92A/S94N/V144I/P190Q/T192I/R221H/S234T/E239D/G245V/P256A/Q271R/V283A/S284T/G286E/H289Q/A298V/A308V/T321S/S331P/P332S/P335A/T336S/S338D/P345H/R346P/H349S/INS350SGYK/P352A/N358S/P359H/A368V/G369S/A370S/Q373E/A374L/P375T/P378Q): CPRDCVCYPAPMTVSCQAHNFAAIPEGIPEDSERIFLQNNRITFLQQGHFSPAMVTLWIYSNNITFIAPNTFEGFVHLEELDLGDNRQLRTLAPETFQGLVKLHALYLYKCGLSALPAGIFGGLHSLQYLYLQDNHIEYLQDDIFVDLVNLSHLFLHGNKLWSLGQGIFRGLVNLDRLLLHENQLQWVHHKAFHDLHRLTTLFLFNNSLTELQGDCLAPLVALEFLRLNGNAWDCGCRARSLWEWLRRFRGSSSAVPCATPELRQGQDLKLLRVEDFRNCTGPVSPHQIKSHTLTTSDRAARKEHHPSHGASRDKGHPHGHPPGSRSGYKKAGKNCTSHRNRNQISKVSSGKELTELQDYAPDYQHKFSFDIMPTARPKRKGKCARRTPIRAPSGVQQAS

rat NgR1 = molecular target: T2, rat NgR1 (Rattus norvegicus, UniProt Q99M75); assay: Antibody binding specificity: rat Nogo receptor-1
T2 sequence (Q99M75 27-310): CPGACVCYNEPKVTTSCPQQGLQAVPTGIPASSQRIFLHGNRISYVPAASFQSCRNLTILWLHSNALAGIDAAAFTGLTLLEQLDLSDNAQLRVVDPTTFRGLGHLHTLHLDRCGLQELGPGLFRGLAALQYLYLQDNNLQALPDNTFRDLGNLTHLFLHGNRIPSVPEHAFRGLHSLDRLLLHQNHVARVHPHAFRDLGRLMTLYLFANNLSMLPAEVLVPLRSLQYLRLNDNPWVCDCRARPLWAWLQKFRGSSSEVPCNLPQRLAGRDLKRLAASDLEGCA

binding to NgR3 (NgR3): does not bind well
binding to rat Nogo receptor-1 (rat NgR1): bound; also recorded: binds well
B1: 7E11: murine monoclonal anti-Nogo receptor-1 antibody, immunogen rat Nogo receptor-1 residues 110-125, IgG1 kappa, ATCC PTA-4587 (antibody, V domains shown)
VH: VQLQESGAELVMPGASVKMSCKASGYTFTDYWMHWVKQRPGQGLEWIGAIDPSDSYSSYNQNFKGKATLTVDGSSSTAYMQLSSLTSEDSAVYYCARRITEAGAWFAYWGQGTTVT
VL: MKLPVRLLVLMFWIPASSSDVVMTQTPLSLPVSLGDQASISCRSSQSLVHSNGNTYLHWYLQKPGQSPKLLIYKVSNRFSGVPDRFSGSGSGTDFTLKISRVDAEDLGVYFCSQSTHVPFTFGGGTKLEIKRADAAPTVSISHH
modifications: 7E11 heavy chain; 7E11 light chain
notes: murine monoclonal anti-Nogo receptor-1 antibody, immunogen rat Nogo receptor-1 residues 110-125, IgG1 kappa, ATCC PTA-4587
